Test results taken from PMC10185811, “FAT10 and NUB1L cooperate to activate the 26S proteasome” (Life Science Alliance, 2023).

Columns and labels:
His6-RPN10 = biological target: T1, His6-RPN10 (human, UniProt P55036 1-377); experiment: BLI; Octet; His6-RPN10 on the sensor; GST-FAT10 alone or together with NUB1LΔUBL in solution; Octet buffer; 1:1 binding model; conditions: both partners purified
T1 construct: RPN10 (hS5α), subunit of the 19S regulator of the 26S proteasome, human; also called His–RPN10; hS5α; source: recombinant; expression and purification described before (Rani et al, 2012)

[1] = biological target: T2, NUB1L (NEDD8 ultimate buster 1 long), tagless (human, UniProt Q9Y5A7-1 1-615); experiment: BLI; Octet; His6-RPN1 loaded on the nickel sensor; NUB1L, GST-FAT10, NUB1L with GST-FAT10 or NUB1L with GST in solution; Octet buffer (PBS, 0.1% Triton X-100, 1x ROTIBlock); 1:1 binding model; conditions: both partners purified
T2 construct: NUB1L, human, the long splice variant of NUB1 with one UBL and three UBA domains, printed mass 69.1 kD; The long splice variant is meant; which UniProt isoform id holds it was not checked; By my reading of the printed primers the insert begins at Ala2 (AQKKYLQ) and runs to the stop codon; also called NUB1 long; full-length WT NUB1L; source: recombinant, cloned into the pSUMO vector; expression, …
T2 sequence (looked up): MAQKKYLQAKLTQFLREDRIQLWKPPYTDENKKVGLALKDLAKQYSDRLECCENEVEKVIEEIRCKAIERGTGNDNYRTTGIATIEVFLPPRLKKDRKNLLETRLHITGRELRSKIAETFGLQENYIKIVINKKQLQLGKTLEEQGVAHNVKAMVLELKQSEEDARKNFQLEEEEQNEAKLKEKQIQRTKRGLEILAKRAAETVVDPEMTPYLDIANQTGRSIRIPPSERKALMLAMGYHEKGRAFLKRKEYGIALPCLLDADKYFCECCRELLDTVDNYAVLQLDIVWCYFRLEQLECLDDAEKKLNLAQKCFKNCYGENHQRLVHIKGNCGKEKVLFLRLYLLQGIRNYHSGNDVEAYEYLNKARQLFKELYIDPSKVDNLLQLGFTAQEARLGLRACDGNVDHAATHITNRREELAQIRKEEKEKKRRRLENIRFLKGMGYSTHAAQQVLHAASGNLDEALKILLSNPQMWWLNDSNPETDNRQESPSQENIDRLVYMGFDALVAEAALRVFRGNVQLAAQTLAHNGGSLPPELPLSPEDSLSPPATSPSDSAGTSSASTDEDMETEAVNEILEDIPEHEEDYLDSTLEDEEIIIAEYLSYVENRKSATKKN

T1 sequence (P55036 whole entry): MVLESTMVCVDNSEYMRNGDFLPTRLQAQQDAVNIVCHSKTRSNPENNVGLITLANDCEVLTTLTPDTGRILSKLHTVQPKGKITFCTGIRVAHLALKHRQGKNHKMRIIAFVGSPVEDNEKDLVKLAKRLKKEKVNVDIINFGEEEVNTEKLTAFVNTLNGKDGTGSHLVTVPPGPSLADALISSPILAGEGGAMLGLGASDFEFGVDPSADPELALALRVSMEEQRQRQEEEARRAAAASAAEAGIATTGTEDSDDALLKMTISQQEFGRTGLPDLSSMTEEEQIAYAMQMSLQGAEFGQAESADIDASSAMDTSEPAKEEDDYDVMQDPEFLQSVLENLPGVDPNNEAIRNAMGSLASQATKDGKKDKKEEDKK

binding result (His6-RPN10): binds
binding result [1]: binds
B1: GST-FAT10 (natural protein, human, UniProt O15205 1-165, looked up)
chain: MAPNASCLCVHVRSEEWDLMTFDANPYDSVKKIKEHVRSKTKVPVQDQVLLLGSKILKPRRSLSSYGIDKEKTIHLTLKVVKPSDEELPLFLVESGDEAKRHLLQVRRSSSVAQVKAMIETKTGIIPETQIVTCNGKRLEDGKMMADYGIRKGNLLFLACYCIGG
notes: FAT10 (HLA-F adjacent transcript 10), human; source: recombinant; expression and purification previously described (Schmidtke et al, 2006)
